# Test results as given in IntAct's records for PubMed 31515488.
# B1: Keratin, type I cytoskeletal 20 (Homo sapiens), P35900 (parent)
# chain: MDFSRRSFHRSLSSSLQAPVVSTVGMQRLGTTPSVYGGAGGRGIRISNSRHTVNYGSDLTGGGDLFVGNEKMAMQNLNDRLASYLEKVRTLEQSNSKLEVQIKQWYETNAPRAGRDYSAYYRQIEELRSQIKDAQLQNARCVLQIDNAKLAAEDFRLKYETERGIRLTVEADLQGLNKVFDDLTLHKTDLEIQIEELNKDLALLKKEHQEEVDGLHKHLGNTVNVEVDAAPGLNLGVIMNEMRQKYEVMAQKNLQEAKEQFERQTAVLQQQVTVNTEELKGTEVQLTELRRTSQSLEIELQSHLSMKESLEHTLEETKARYSSQLANLQSLLSSLEAQLMQIRSNMERQNNEYHILLDIKTRLEQEIATYRRLLEGEDVKTTEYQLSTLEERDIKKTRKIKTVVQEVVDGKVVSSEVKEVEENI
# partner: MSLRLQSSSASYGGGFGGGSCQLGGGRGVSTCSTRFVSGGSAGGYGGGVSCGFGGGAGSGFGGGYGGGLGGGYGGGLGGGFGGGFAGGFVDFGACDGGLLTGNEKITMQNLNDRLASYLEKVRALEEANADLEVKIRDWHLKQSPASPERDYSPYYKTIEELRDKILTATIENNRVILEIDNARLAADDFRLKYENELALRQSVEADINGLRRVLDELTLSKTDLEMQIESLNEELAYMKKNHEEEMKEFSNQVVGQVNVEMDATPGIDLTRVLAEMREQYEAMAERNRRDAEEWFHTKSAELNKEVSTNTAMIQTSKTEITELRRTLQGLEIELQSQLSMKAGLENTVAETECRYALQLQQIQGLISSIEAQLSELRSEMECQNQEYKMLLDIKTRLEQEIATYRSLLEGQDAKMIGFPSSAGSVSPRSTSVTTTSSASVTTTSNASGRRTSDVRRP
# B2: Protein-associating with the carboxyl-terminal domain of ezrin (Homo sapiens), Q8IZE3 (parent)
# chain: MGSENSALKSYTLREPPFTLPSGLAVYPAVLQDGKFASVFVYKRENEDKVNKAAKHLKTLRHPCLLRFLSCTVEADGIHLVTERVQPLEVALETLSSAEVCAGIYDILLALIFLHDRGHLTHNNVCLSSVFVSEDGHWKLGGMETVCKVSQATPEFLRSIQSIRDPASIPPEEMSPEFTTLPECHGHARDAFSFGTLVESLLTILNEQVSADVLSSFQQTLHSTLLNPIPKCRPALCTLLSHDFFRNDFLEVVNFLKSLTLKSEEEKTEFFKFLLDRVSCLSEELIASRLVPLLLNQLVFAEPVAVKSFLPYLLGPKKDHAQGETPCLLSPALFQSRVIPVLLQLFEVHEEHVRMVLLSHIEAYVEHFTQEQLKKVILPQVLLGLRDTSDSIVAITLHSLAVLVSLLGPEVVVGGERTKIFKRTAPSFTKNTDLSLEDSPMCVVCSHHSQISPILENPFSSIFPKCFFSGSTPINSKKHIQRDYYNTLLQTGDPFSQPIKFPINGLSDVKNTSEDSENFPSSSKKSEEWPDWSEPEEPENQTVNIQIWPREPCDDVKSQCTTLDVEESSWDDCEPSSLDTKVNPGGGITATKPVTSGEQKPIPALLSLTEESMPWKSSLPQKISLVQRGDDADQIEPPKVSSQERPLKVPSELGLGEEFTIQVKKKPVKDPEMDWFADMIPEIKPSAAFLILPELRTEMVPKKDDVSPVMQFSSKFAAAEITEGEAEGWEEEGELNWEDNNW
# partner: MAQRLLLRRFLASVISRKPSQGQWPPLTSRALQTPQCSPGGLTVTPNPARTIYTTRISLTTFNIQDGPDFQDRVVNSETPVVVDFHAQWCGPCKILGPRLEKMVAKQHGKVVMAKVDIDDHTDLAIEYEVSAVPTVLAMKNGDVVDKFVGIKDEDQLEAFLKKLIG
# B3: Microtubule-associated tumor suppressor candidate 2 (Homo sapiens), Q5JR59-3 (parent)
# chain: MGHCCCKPYNCLQCLDKTNESALVKEKELSIELANIRDEVAFHTAKCEKLQKEKEELERRFEDEVKRLGWQQQAELQELEERLQLQFEAEMARLQEEHGDQLLSIRCQHQEQVEDLTASHDAALLEMENNHTVAITILQDDHDHKVQELMSTHELEKKELEENFEKLRLSLQDQVDTLTFQSQSLRDRARRFEEALRKNTEEQLEIALAPYQHLEEDMKSLKQVLEMKNQQIHEQEKKILELEKLAEKNIILEEKIQVLQQQNEDLKARIDQNTVVTRQLSEENANLQEYVEKETQEKKRLSRTNEELLWKLQTGDPTSPIKLSPTSPVYRGSSSGPSSPARVSTTPR
# partner: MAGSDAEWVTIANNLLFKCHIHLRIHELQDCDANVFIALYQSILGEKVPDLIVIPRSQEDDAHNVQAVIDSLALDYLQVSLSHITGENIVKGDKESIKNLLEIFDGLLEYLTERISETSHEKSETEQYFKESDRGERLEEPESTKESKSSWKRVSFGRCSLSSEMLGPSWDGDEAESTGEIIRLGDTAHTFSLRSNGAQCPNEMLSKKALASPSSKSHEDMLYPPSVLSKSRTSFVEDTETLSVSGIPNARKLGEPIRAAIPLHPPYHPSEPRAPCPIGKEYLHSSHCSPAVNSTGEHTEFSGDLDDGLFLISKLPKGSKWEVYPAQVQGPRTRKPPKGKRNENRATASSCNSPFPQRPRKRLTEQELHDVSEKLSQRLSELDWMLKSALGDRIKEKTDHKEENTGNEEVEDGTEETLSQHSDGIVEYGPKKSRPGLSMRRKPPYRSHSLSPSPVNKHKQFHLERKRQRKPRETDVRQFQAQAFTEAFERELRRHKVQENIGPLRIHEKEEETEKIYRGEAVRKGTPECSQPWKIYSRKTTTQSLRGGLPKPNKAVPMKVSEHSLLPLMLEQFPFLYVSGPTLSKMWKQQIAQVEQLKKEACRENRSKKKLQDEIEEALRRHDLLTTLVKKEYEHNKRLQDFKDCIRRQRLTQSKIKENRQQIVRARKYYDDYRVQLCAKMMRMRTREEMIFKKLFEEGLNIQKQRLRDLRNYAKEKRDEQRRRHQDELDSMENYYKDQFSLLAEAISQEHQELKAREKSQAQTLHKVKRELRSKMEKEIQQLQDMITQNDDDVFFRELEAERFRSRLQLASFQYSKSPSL
# B4: Kelch-like protein 2 (Homo sapiens), O95198 (parent)
# chain: METPPLPPACTKQGHQKPLDSKDDNTEKHCPVTVNPWHMKKAFKVMNELRSQNLLCDVTIVAEDMEISAHRVVLAACSPYFHAMFTGEMSESRAKRVRIKEVDGWTLRMLIDYVYTAEIQVTEENVQVLLPAAGLLQLQDVKKTCCEFLESQLHPVNCLGIRAFADMHACTDLLNKANTYAEQHFADVVLSEEFLNLGIEQVCSLISSDKLTISSEEKVFEAVIAWVNHDKDVRQEFMARLMEHVRLPLLPREYLVQRVEEEALVKNSSACKDYLIEAMKYHLLPTEQRILMKSVRTRLRTPMNLPKLMVVVGGQAPKAIRSVECYDFKEERWHQVAELPSRRCRAGMVYMAGLVFAVGGFNGSLRVRTVDSYDPVKDQWTSVANMRDRRSTLGAAVLNGLLYAVGGFDGSTGLSSVEAYNIKSNEWFHVAPMNTRRSSVGVGVVGGLLYAVGGYDGASRQCLSTVECYNATTNEWTYIAEMSTRRSGAGVGVLNNLLYAVGGHDGPLVRKSVEVYDPTTNAWRQVADMNMCRRNAGVCAVNGLLYVVGGDDGSCNLASVEYYNPTTDKWTVVSSCMSTGRSYAGVTVIDKPL
# B5: Src kinase-associated phosphoprotein 1 (Homo sapiens), Q86WV1 (parent)
# chain: MQAAALPEEIRWLLEDAEEFLAEGLRNENLSAVARDHRDHILRGFQQIKARYYWDFQPQGGDIGQDSSDDNHSGTLGLSLTSDAPFLSDYQDEGMEDIVKGAQELDNVIKQGYLEKKSKDHSFFGSEWQKRWCVVSRGLFYYYANEKSKQPKGTFLIKGYGVRMAPHLRRDSKKESCFELTSQDRRSYEFTATSPAEARDWVDQISFLLKDLSSLTIPYEEDEEEEEKEETYDDIDGFDSPSCGSQCRPTILPGSVGIKEPTEEKEEEDIYEVLPDEEHDLEEDESGTRRKGVDYASYYQGLWDCHGDQPDELSFQRGDLIRILSKEYNMYGWWVGELNSLVGIVPKEYLTTAFEVEER
# Variants of: B1
# Conditions: with KRT13, P13646
row,Variant,effect of a mutation on the interaction
1,S129N,with no effect
2,S309Y,with no effect

# Variants of: B2
# Conditions: with thiom_human TXN2, Q99757
row,Variant,effect of a mutation on the interaction
1,Q621R,with no effect
2,L625F,with no effect

# Variants of: B3
# Conditions: with cep95_human CEP95, Q96GE4
row,Variant,effect of a mutation on the interaction
1,A89V,with no effect

# Variants of: B4
# Conditions: with cul3_human CUL3, Q13618
row,Variant,effect of a mutation on the interaction
1,V156I,with no effect

# Variants of: B4
# Conditions: with zn114_human ZNF114, Q8NC26
# Chain of zn114_human ZNF114, Q8NC26 (Q8NC26 whole entry): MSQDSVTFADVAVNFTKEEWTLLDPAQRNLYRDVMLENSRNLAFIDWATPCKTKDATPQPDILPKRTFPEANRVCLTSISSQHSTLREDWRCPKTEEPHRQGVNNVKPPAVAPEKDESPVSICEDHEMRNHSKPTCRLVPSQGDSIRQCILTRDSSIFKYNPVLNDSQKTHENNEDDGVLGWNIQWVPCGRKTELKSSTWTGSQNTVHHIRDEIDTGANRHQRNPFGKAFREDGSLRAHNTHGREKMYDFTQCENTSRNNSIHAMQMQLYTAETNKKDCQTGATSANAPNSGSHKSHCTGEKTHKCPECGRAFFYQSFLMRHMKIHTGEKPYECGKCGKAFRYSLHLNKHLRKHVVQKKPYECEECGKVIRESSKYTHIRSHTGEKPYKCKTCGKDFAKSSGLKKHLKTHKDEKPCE
row,Variant,effect of a mutation on the interaction
1,V156I,with no effect

# Variants of: B4
# Conditions: with txd12_human TXNDC12, O95881
# Chain of txd12_human TXNDC12, O95881 (O95881 whole entry): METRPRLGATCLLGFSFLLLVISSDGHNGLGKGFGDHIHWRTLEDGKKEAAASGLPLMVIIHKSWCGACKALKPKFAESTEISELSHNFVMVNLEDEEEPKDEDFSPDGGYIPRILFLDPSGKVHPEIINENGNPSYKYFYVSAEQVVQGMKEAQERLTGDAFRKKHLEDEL
row,Variant,effect of a mutation on the interaction
1,A480T,with no effect
2,S68A,with no effect

# Variants of: B4
# Conditions: with tma16_human TMA16, Q96EY4
row,Variant,effect of a mutation on the interaction
1,A480T,with no effect
2,S68A,with no effect

# Variants of: B5
# Conditions: with eeig1_human EEIG1, Q5T9C2
# Chain of eeig1_human EEIG1, Q5T9C2 (Q5T9C2 whole entry): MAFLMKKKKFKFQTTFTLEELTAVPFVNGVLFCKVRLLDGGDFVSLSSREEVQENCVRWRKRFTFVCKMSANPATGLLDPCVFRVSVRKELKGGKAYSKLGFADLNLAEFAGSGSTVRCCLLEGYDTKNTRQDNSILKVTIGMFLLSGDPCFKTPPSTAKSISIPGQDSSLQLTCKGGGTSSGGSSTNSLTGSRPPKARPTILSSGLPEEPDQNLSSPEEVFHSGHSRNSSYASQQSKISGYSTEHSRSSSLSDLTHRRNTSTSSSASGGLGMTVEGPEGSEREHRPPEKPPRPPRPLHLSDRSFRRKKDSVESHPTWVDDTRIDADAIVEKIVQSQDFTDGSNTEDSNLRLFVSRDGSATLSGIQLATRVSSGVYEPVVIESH
row,Variant,effect of a mutation on the interaction
1,S242G,with no effect
